Publication PMC7058304 (PLoS ONE, 2020)

Assays:
Details in all cases: both partners purified
[1] = molecular target: T1, biotinylated His-tagged PD-1 (Homo sapiens, UniProt Q15116, biotin); test: MSD solution equilibrium titration; 100 pM biotinylated His-tagged PD-1 titrated with mAb (top 100, 50 or 10 nM binding sites), 18 h at room temperature; free antigen captured on mAb-coated MSD plates; relative KD
T1 construct: PD-1, His-tagged, biotinylated, used in the MSD experiments; probably the R&D Systems Leu25-Thr168 protein after biotinylation
T1 sequence (Q15116 whole entry, looked up, tested part not stated): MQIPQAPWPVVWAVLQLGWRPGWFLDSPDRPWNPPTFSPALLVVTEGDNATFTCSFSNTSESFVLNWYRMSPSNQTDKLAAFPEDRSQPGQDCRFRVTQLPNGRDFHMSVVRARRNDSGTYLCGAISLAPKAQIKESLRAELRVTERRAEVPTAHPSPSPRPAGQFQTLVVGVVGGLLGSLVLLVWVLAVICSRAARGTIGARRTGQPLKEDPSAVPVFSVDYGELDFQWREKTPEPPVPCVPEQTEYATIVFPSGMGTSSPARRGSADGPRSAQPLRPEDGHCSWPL

[2] = molecular target: T2, Recombinant purified human PD-1 protein, residues Leu25-Thr168, with a C-terminal 6-His tag (human, UniProt Q15116); test: SPR; Biacore 8K, 3D-hydrogel chips (average of CM5 and CMD-200M); mAbs captured on goat anti-human IgG Fc; PD-1 His-tagged monomer analyte 0.4-100 nM; 25 C; HBS-EP+ pH 7.4; 1:1 Langmuir fit with mass transport; apparent
T2 construct: programmed cell death protein 1 (PD-1), human, residues Leu25-Thr168; monomer; the results call it wild-type or full length PD-1 against the P35-Q167 fragment; also called PD-1-His; PD-1 His-tagged monomer; source: bought: R&D Systems; not shown: His6, C-terminal, kept
T2 sequence (Q15116 25-168): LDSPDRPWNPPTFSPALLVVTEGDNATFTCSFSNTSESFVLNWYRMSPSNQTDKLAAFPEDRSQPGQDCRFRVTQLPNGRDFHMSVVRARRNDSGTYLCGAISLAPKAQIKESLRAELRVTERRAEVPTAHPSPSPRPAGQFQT

[3] = molecular target: T2, Recombinant purified human PD-1 …; test: SPR; Biacore 8K, flat chips (average of C1 and CMD-P); mAbs captured on goat anti-human IgG Fc; PD-1 His-tagged monomer analyte 0.4-100 nM; 25 C; HBS-EP+ pH 7.4; 1:1 Langmuir fit with mass transport; apparent
[4] = molecular target: T2, Recombinant purified human PD-1 …; test: SPR; Carterra LSA, CMD-P (flat) chip; mAbs captured on goat anti-human IgG Fc in a 384-spot array; PD-1-His analyte 0.5-1000 nM, 5 min association, 20 min dissociation; HBS-ET + 0.5 mg/ml BSA; 1:1 Langmuir fit; mean of spots; apparent
[5] = molecular target: T2, Recombinant purified human PD-1 …; test: KinExA equilibrium; fixed mAb orientation: PD-1-His monomer titrated (0.1 pM-1.2 uM) into fixed mAb, equilibrated up to 64 h; free mAb captured on beads coated with Fc-fused PD-1; about 23 C; PBS pH 7.4 + 0.05% azide + 0.01% BSA; N-curve analysis; apparent
[6] = molecular target: T3, Recombinant purified human PD-1 protein, residues Leu25-Thr168, with a C-terminal 6-His tag (Homo sapiens, UniProt Q15116); test: SPR; Carterra LSA, CMD-P (flat) chip; mAb captured by amine-coupled goat anti-human IgG Fc, PD-1-His as analyte 0.5-1000 nM, 5 min association, 20 min dissociation; run buffer with 0.5 mg/ml BSA; global 1:1 Langmuir fit; mean (stdev) of 8-12 spots per mAb; KD deduced from kd/ka; apparent
T3 construct: human PD-1 (programmed cell death protein 1), residues Leu25-Thr168; monomer; used as analyte in SPR and as titrant in KinExA; also called PD-1-His; PD-1-His monomer; source: bought: R&D Systems (catalog# 8986-PD, lot# DDJM0417041); not shown: His6, C-terminal, kept
T3 sequence (Q15116 25-168): as above

[7] = molecular target: T3, Recombinant purified human PD-1 …; test: KinExA; 'Kinetics, Direct' method, solution phase: mAb mixed with PD-1, free mAb probed repeatedly pre-equilibrium on PD-1-coupled PMMA beads, Alexa647 goat anti-human IgG detection; ka fitted (best fit, 95% CI), kd calculated from ka and KD

B1: mAb03 (analog of tislelizumab) (antibody, V domains shown)
VH: QVQLQESGPGLVKPSETLSLTCTVSGFSLTSYGVHWIRQPPGKGLEWIGVIYADGSTNYNPSLKSRVTISKDTSKNQVSLKLSSVTAADTAVYYCARAYGNYWYIDVWGQGTTVTVSS
VL: DIVMTQSPDSLAVSLGERATINCKSSESVSNDVAWYQQKPGQPPKLLINYAFHRFTGVPDRFSGSGYGTDFTLTISSLQAEDVAVYYCHQAYSSPYTFGQGTKLEIK
notes: VH; IgG4 heavy-chain constant region with stabilizing 226CPPC hinge; VL; IgG4 analog; source: HEK293 suspension cells, cotransfected, purified (Protein A)
For B1, the Kd [1] was 0.024 nM, the Kd [2] was 0.26 nM and the Kd [3] was 0.13 nM. The Kd [4] was under 0.099 nM, the koff [4] was under 4.3e-05 s⁻¹ and the kon [4] was 430000 M⁻¹ s⁻¹. The Kd [5] was 0.038 nM.

B2: mAb16 (analog of dostarlimab) (antibody, V domains shown)
VH: EVQLLESGGGLVQPGGSLRLSCAASGFTFSSYDMSWVRQAPGKGLEWVSTISGGGSYTYYQDSVKGRFTISRDNSKNTLYLQMNSLRAEDTAVYYCASPYYAMDYWGQGTTVTVSS
VL: DIQLTQSPSFLSAYVGDRVTITCKASQDVGTAVAWYQQKPGKAPKLLIYWASTLHTGVPSRFSGSGSGTEFTLTISSLQPEDFATYYCQHYSSYPWTFGQGTKLEIK
notes: as for B1
With B2 the Kd [1] was 0.18 nM, the Kd [2] was 1.7 nM and the Kd [3] was 0.87 nM. For the same binder, the Kd [4] was 1.6 nM, the koff [4] was 0.00039 s⁻¹ and the kon [4] was 240000 M⁻¹ s⁻¹. It also gave a Kd [5] of 0.2 nM.

B3: mAb23 (analog of cemiplimab) (antibody, V domains shown)
VH: EVQLLESGGVLVQPGGSLRLSCAASGFTFSNFGMTWVRQAPGKGLEWVSGISGGGRDTYFADSVKGRFTISRDNSKNTLYLQMNSLKGEDTAVYYCVKWGNIYFDYWGQGTLVTVSS
VL: DIQMTQSPSSLSASVGDSITITCRASLSINTFLNWYQQKPGKAPNLLIYAASSLHGGVPSRFSGSGSGTDFTLTIRTLQPEDFATYYCQQSSNTPFTFGPGTVVDFR
notes: as for B1
B3 gave a Kd [1] of 0.13 nM, a Kd [2] of 1.9 nM and a Kd [3] of 0.82 nM. The Kd [4] was 1.5 nM, the koff [4] was 0.00028 s⁻¹ and the kon [4] was 190000 M⁻¹ s⁻¹. The Kd [5] was 0.22 nM.

B4: mAb03 (analog of tislelizumab) (antibody, V domains shown)
VH: QVQLQESGPGLVKPSETLSLTCTVSGFSLTSYGVHWIRQPPGKGLEWIGVIYADGSTNYNPSLKSRVTISKDTSKNQVSLKLSSVTAADTAVYYCARAYGNYWYIDVWGQGTTVTVSS
VL: DIVMTQSPDSLAVSLGERATINCKSSESVSNDVAWYQQKPGQPPKLLINYAFHRFTGVPDRFSGSGYGTDFTLTISSLQAEDVAVYYCHQAYSSPYTFGQGTKLEIK
notes: VH; IgG4 heavy-chain constant region with a stabilizing 226CPPC hinge modification; IgG4; isotype-matched analog made from published variable regions, not the clinical molecule; source: HEK293 suspension cells, cotransfected, purified (Protein A)
Work on B4 yielded a Kd [6] of under 0.1 nM, a koff [6] of under 4.27e-05 s⁻¹ and a kon [6] of 432000 M⁻¹ s⁻¹. The koff [7] was 6.82e-05 s⁻¹ and the kon [7] was 1.8e+06 M⁻¹ s⁻¹.

B5: mAb23 (analog of cemiplimab) (antibody, V domains shown)
VH: EVQLLESGGVLVQPGGSLRLSCAASGFTFSNFGMTWVRQAPGKGLEWVSGISGGGRDTYFADSVKGRFTISRDNSKNTLYLQMNSLKGEDTAVYYCVKWGNIYFDYWGQGTLVTVSS
VL: DIQMTQSPSSLSASVGDSITITCRASLSINTFLNWYQQKPGKAPNLLIYAASSLHGGVPSRFSGSGSGTDFTLTIRTLQPEDFATYYCQQSSNTPFTFGPGTVVDFR
notes: as for B4
B5 gave a Kd [6] of 1.52 nM, a koff [6] of 0.000297 s⁻¹ and a kon [6] of 195000 M⁻¹ s⁻¹. The koff [7] was 0.00011 s⁻¹ and the kon [7] was 502000 M⁻¹ s⁻¹.

B6: mAb16 (analog of dostarlimab) (antibody, V domains shown)
VH: EVQLLESGGGLVQPGGSLRLSCAASGFTFSSYDMSWVRQAPGKGLEWVSTISGGGSYTYYQDSVKGRFTISRDNSKNTLYLQMNSLRAEDTAVYYCASPYYAMDYWGQGTTVTVSS
VL: DIQLTQSPSFLSAYVGDRVTITCKASQDVGTAVAWYQQKPGKAPKLLIYWASTLHTGVPSRFSGSGSGTEFTLTISSLQPEDFATYYCQHYSSYPWTFGQGTKLEIK
notes: as for B4
For B6, the Kd [6] was 1.67 nM, the koff [6] was 0.000421 s⁻¹ and the kon [6] was 252000 M⁻¹ s⁻¹. For the same binder, the koff [7] was 0.00013 s⁻¹ and the kon [7] was 639000 M⁻¹ s⁻¹.
